Experimental findings from patent US20100105569A1 (AbbVie / Abbott, published 2010) are described below.

For experiment [1], the target named is T1, human IL-12 (biotinylated) (human, UniProt P29459 23-219; P29460 23-328, biotinylated (site and subunit not stated)).
T1 construct: also called hIL-12
T1 sequence (looked up) 1: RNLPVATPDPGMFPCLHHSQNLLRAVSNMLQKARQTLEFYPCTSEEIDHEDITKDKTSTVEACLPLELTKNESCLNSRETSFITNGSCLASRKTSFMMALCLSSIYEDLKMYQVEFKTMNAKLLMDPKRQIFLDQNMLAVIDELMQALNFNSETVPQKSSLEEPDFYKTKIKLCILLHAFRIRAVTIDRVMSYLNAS
T1 sequence (looked up) 2: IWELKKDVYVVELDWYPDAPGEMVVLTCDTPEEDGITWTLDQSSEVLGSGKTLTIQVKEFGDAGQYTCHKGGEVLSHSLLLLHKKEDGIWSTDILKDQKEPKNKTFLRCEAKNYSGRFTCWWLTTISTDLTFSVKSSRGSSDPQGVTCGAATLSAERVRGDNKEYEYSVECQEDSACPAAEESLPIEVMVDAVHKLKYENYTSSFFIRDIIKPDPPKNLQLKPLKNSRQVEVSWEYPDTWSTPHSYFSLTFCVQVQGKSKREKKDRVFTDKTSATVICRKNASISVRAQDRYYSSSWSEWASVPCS
Put plainly: mRNA-scFv selected with 50 nM IL-12, bead capture, % of input 35S counts recovered.

The target in experiment [2] is biotinylated HA tag peptide. The experiment is described as follows: mRNA-scFv (ligated protein) selected with 50 nM HA; translated without PDI.
The target of experiment [3] is biotinylated HA tag peptide. Put plainly: mRNA-scFv selected with 50 nM HA; PDI: Yes, RT: No (same value as the 33rd table, row 11, column 5).
In experiment [4] the target is biotinylated HA tag peptide. The experiment is described as follows: mRNA-scFv selected with 50 nM HA; PDI: Yes, RT before selection with DTT.
For experiment [5], the target named is biotinylated HA tag peptide. Put plainly: mRNA-scFv (ligated protein) selected with 50 nM HA; translated with PDI.
The target of experiment [6] is biotinylated HA tag peptide. Put plainly: free scFv selected with 50 nM HA; translated with PDI.
Experiment [7] addresses biotinylated HA tag peptide. The experiment is described as follows: mRNA-scFv selected with 50 nM HA; PDI: Yes, RT before selection without DTT.
Experiment [8] deals with biotinylated HA tag peptide. The experiment is described as follows: mRNA-scFv selected with 50 nM HA; PDI: No, RT: No (same value as the 33rd table, row 10, column 5).
Experiment [9] addresses biotinylated HA tag peptide. Put plainly: free scFv selected with 50 nM HA; translated without PDI.

B1: Y61 scFv short (Y61-scCL-short) (scFv)
scFv: MQVQLVQSGGGVVQPGRSLRLSCAASGFTFSSYGMHWVRQAPGKGLEWVAFIRYDGSNKYYADSVKGRFTISRDNSKNTLYLQMKSLRAEDTAVYYCKTHGSHDNWGQGTMVTVSSGGGGSGGGGSGGGGSSYVLTQPPSVSGTPGQRVTISCSGGRSNIGSNTVKWYQQLPGTAPKLLIYGNDQRPSGVPDRFSGSKSGTSASLAITGVQAEDEADYYCQSYDRGTHPALLFGTGTKLTVLGQPKAAPSVTLDYKDDDDKASAI
notes: Human anti-hIL-12 scFv, in vitro translated with 35S-methionine; tested as free protein or as mRNA-scFv (ligated protein), as said under assay; also called Y61-CL-short
Consider B1, for which, in experiment [1], the “Percent of Recovery, IL-12 (50 nM selection)” value (“Percent … (50 nM selection)” for short) is 21.1%.

B2: Y61-scGene3 (Y61 scFv Gene3) (scFv)
scFv: MQVQLVQSGGGVVQPGRSLRLSCAASGFTFSSYGMHWVRQAPGKGLEWVAFIRYDGSNKYYADSVKGRFTISRDNSKNTLYLQMKSLRAEDTAVYYCKTHGSHDNWGQGTMVTVSSGGGGSGGGGSGGGGSSYVLTQPPSVSGTPGQRVTISCSGGRSNIGSNTVKWYQQLPGTAPKLLIYGNDQRPSGVPDRFSGSKSGTSASLAITGVQAEDEADYYCQSYDRGTHPALLFGTGTKLTVLGQPKAAPSVTLPQPPVNAGGGSGGGSGGGSEGGGSEGGGSEGGGSEGGGSGGGSGSGDFDYEKMANANKGAMTENADENALQSDAKGKLDSVATDYDYKDDDDKASAI
notes: also called PF-y61scGene3
As for B2, the “Percent … (50 nM selection)” value in experiment [1] turned out to be 8%.

B3: Y61-scGene3pA (Y61 scFv Gene3PA) (scFv)
scFv: B2 scFv
Take B3: in experiment [1], the “Percent … (50 nM selection)” value amounted to 6.1%.

B4: 17/9 scFv (spacer form not stated) (scFv)
scFv: EVQLVESGGGLVQPGRSLRLSCAASGFTFDDYAMHWVRQAPGKGLDWVSAITWNSGHIDYADSVEGRFAVSRDNAKNALYLQMNSLRPEDTAVYYCTKASYLSTSSSLDNWGQGTLVTVSSGGGGSGGGGSGGGGSDIQMTQSPSSLSASIGDRVTITCRASQGIRNYLAWYQQKPGKAPKLLIYAASTLQSGVPSRFSGSGSGTDFTLTISSLQPEDVATYYCQKYNSAPYAFGQGTKVEIKR
Take B4: the % of Recovery, HA (50 nM) selection turned out to be 2.3% in experiment [2]; 12.4% in [3]; 2% in [4]; 12.4% in [5]; 30.5% in [6]; 9.4% in [7]. For the same molecule, the % of Recovery, HA (50 nM) selection in experiment [8] was found to be 2.3%; in experiment [9], 3.3%.
